Laboratory results published in patent US20240245796A1 (PROFOUNDBIO US, published 2024).

Tests used:
[1] = molecular target: T1, human FOLR1 extracellular domain linked to His tag (human, UniProt P15328 25-233, limits assumed); test: BLI, global 1:1 fit (250 nM row)
T1 construct: extracellular domain; It may be the same product as m13; also called Hu-FRα; Hu-Ag; not shown: His tag

[2] = molecular target: T2, cynomolgus monkey FOLR1 extracellular domain linked to His tag (cynomolgus monkey, UniProt A0A2K5U044 25-233); test: BLI, global 1:1 fit (250 nM row)
T2 construct: extracellular domain; Antigen in solution in BLI; It may be the same product as m14; also called Cyno-Ag; not shown: His tag

[3] = molecular target: T1, human FOLR1 extracellular domain linked …; test: BLI, global 1:1 fit (15.6 nM row)
[4] = molecular target: T3, human FOLR2 extracellular domain linked to His tag (human, UniProt P14207 17-230, limits assumed); test: BLI, global 1:1 fit (15.6 nM row)
T3 construct: extracellular domain; Antigen in solution in BLI; also called Hu-FRb; not shown: His tag

[5] = molecular target: T1, human FOLR1 extracellular domain linked …; test: BLI, global 1:1 fit (31.3 nM row)
[6] = molecular target: T3, human FOLR2 extracellular domain linked …; test: BLI, global 1:1 fit (31.3 nM row)
[7] = molecular target: T1, human FOLR1 extracellular domain linked …; test: BLI, global 1:1 fit (7.82 nM row)
[8] = molecular target: T3, human FOLR2 extracellular domain linked …; test: BLI, global 1:1 fit (7.82 nM row)
[9] = molecular target: T1, human FOLR1 extracellular domain linked …; test: BLI, global 1:1 fit (15.6 nM row); remark: listed apart in the source
[10] = molecular target: T2, cynomolgus monkey FOLR1 extracellular …; test: BLI, global 1:1 fit (15.6 nM row)
[11] = molecular target: T1, human FOLR1 extracellular domain linked …; test: BLI, Ag 125 nM over Ab on anti-hIgG Fc tip
[12] = molecular target: T3, human FOLR2 extracellular domain linked …; test: BLI, Ag 125 nM over Ab on anti-hIgG Fc tip
[13] = molecular target: T1, human FOLR1 extracellular domain linked …; test: BLI, Ag 62.5 nM over Ab on anti-hIgG Fc tip
[14] = molecular target: T3, human FOLR2 extracellular domain linked …; test: BLI, Ag 62.5 nM over Ab on anti-hIgG Fc tip
[15] = molecular target: T1, human FOLR1 extracellular domain linked …; test: BLI, Ag 31.3 nM over Ab on anti-hIgG Fc tip
[16] = molecular target: T2, cynomolgus monkey FOLR1 extracellular …; test: BLI, Ag 31.3 nM over Ab on anti-hIgG Fc tip
[17] = molecular target: T4, rat FOLR1 extracellular domain linked to His tag (rat); test: BLI, Ag 125 nM; * = below range of quantification
T4 construct: extracellular domain; Antigen in solution in BLI; also called Rat-Ag

[18] = molecular target: T3, human FOLR2 extracellular domain linked …; test: BLI, Ag 15.6 nM; * = below range of quantification
[19] = molecular target: T5, human FOLR3 extracellular domain linked to His tag (human, UniProt P41439 23-245, limits assumed); test: BLI, Ag 15.6 nM; * = below range of quantification
T5 construct: extracellular domain; Antigen in solution in BLI; also called Hu-FRg; not shown: His tag

[20] = molecular target: T3, human FOLR2 extracellular domain linked …; test: BLI, Ag 31.3 nM; * = below range of quantification
[21] = molecular target: T5, human FOLR3 extracellular domain linked …; test: BLI, Ag 31.3 nM; * = below range of quantification
[22] = molecular target: T5, human FOLR3 extracellular domain linked …; test: BLI, global 1:1 fit (31.3 nM row); all responses below quantification
[23] = molecular target: T6, mouse FOLR1 extracellular domain linked to His tag (mouse, UniProt P35846 25-232, limits assumed); test: BLI, global 1:1 fit (62.5 nM row); only the 500 nM response quantifiable
T6 construct: extracellular domain; Antigen in solution in BLI; also called Mouse-Ag; not shown: His tag
T6 sequence (P35846 25-232 limits assumed): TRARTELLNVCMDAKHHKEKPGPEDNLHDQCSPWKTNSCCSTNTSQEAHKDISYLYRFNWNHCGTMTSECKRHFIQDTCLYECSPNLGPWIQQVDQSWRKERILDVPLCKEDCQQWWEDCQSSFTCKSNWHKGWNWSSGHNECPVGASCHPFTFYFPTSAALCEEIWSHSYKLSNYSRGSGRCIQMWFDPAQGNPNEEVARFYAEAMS

T5 sequence (P41439 23-245 limits assumed): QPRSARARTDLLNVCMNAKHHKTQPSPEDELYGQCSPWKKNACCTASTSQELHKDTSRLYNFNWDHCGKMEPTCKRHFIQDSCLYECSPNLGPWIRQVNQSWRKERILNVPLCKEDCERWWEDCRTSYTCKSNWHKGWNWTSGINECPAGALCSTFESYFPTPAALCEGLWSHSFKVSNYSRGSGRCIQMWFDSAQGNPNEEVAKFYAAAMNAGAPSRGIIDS
T3 sequence (P14207 17-230 limits assumed): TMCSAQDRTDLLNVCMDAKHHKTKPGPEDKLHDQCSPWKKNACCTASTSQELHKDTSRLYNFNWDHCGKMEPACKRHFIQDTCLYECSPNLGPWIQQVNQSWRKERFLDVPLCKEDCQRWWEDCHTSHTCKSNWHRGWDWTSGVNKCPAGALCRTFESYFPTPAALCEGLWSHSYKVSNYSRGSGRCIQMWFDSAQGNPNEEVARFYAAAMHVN
T2 sequence (A0A2K5U044 entry or part of it): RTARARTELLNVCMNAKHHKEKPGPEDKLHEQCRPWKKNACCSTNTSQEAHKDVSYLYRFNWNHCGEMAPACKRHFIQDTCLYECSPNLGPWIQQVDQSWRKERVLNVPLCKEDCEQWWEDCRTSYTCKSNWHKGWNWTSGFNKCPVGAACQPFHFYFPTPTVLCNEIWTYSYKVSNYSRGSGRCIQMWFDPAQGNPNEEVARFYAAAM
T1 sequence (P15328 25-233 limits assumed): as the sequence (A0A2K5U044 entry or part of it) above, with T2I, R4W, K37R, P146A, Y171H counted along it

B1: F131 (antibody, V domains shown)
VH: EVQLLESGGGVVQPGRSLRLSCAASGFTFSSYGMHWVRQAPGKGLEWVAVISYDGSNKYYADSVKGRFTISRANSKNTLYLQMNSLRAEDTAVYYCARPRAYYGAYGSSFDYWGQGTQVTVSS
VL: EIVMTQSPSSVSASVGDRVAITCRASQGISSWLAWYQQKPGKAPKLLIYAASSLQSGVPSRFSGSGSGTDFTLTISSLQPEDFATYYCQQSYSTPLTFGGGTKVDIK
notes: also called clone F131; F131 mAb
- Kd [1]: 1.53 nM
- koff [1]: 0.000338 s⁻¹
- kon [1]: 221000 M⁻¹ s⁻¹
- Kd [2]: 8.15 nM
- koff [2]: 0.00157 s⁻¹
- kon [2]: 193000 M⁻¹ s⁻¹
- Kd [3]: 5.3 nM
- koff [3]: 0.0012 s⁻¹
- kon [3]: 226000 M⁻¹ s⁻¹
- Kd [4]: 142 nM
- koff [4]: 0.0784 s⁻¹
- kon [4]: 552000 M⁻¹ s⁻¹
- Kd [5]: 5.3 nM
- koff [5]: 0.0012 s⁻¹
- kon [5]: 226000 M⁻¹ s⁻¹
- Kd [6]: 142 nM
- koff [6]: 0.0784 s⁻¹
- kon [6]: 552000 M⁻¹ s⁻¹
- Kd [7]: 5.3 nM
- koff [7]: 0.0012 s⁻¹
- kon [7]: 226000 M⁻¹ s⁻¹
- Kd [8]: 142 nM
- koff [8]: 0.0784 s⁻¹
- kon [8]: 552000 M⁻¹ s⁻¹
- Kd [9]: 1.53 nM
- koff [9]: 0.000338 s⁻¹
- kon [9]: 221000 M⁻¹ s⁻¹
- Kd [10]: 8.15 nM
- koff [10]: 0.00157 s⁻¹
- kon [10]: 193000 M⁻¹ s⁻¹
- Response [11]: 0.144
- Response [12]: 0.0188
- Response [13]: 0.117
- Response [14]: 0.0356
- Response [15]: 0.0869
- Response [16]: 0.084
- Response [17]: -0.00477
- Response [18]: 0.002
- Response [19]: -0.00261
- Response [20]: 0.0068
- Response [21]: 0.0028
- koff [22]: 0.217 s⁻¹
- kon [22]: 1660 M⁻¹ s⁻¹
- Kd [23]: 2960 nM
- koff [23]: 0.301 s⁻¹
- kon [23]: 102000 M⁻¹ s⁻¹

B2: F131-LD038 (antibody, V domains shown)
VH: B1 VH
VL: B1 VL
modifications: drug-linker LD038 (PB038, maleimide-PEG unit-Val-Cit-PAB-exatecan) on cysteines freed by TCEP reduction; positions not given
notes: Antibody-drug conjugate of F131 (IgG1) with LD038; also called anti-huFOLR-1 conjugate F131-LD038; F131-038
- Kd [1]: 4.8 nM
- koff [1]: 0.00107 s⁻¹
- kon [1]: 224000 M⁻¹ s⁻¹
- Kd [2]: 8.82 nM
- koff [2]: 0.0016 s⁻¹
- kon [2]: 181000 M⁻¹ s⁻¹
- Kd [3]: 4.79 nM
- koff [3]: 0.00121 s⁻¹
- kon [3]: 252000 M⁻¹ s⁻¹
- Kd [4]: 84.4 nM
- koff [4]: 0.0813 s⁻¹
- kon [4]: 963000 M⁻¹ s⁻¹
- Kd [5]: 4.79 nM
- koff [5]: 0.00121 s⁻¹
- kon [5]: 252000 M⁻¹ s⁻¹
- Kd [6]: 84.4 nM
- koff [6]: 0.0813 s⁻¹
- kon [6]: 963000 M⁻¹ s⁻¹
- Kd [7]: 4.79 nM
- koff [7]: 0.00121 s⁻¹
- kon [7]: 252000 M⁻¹ s⁻¹
- Kd [8]: 84.4 nM
- koff [8]: 0.0813 s⁻¹
- kon [8]: 963000 M⁻¹ s⁻¹
- Kd [9]: 4.8 nM
- koff [9]: 0.00107 s⁻¹
- kon [9]: 224000 M⁻¹ s⁻¹
- Kd [10]: 8.82 nM
- koff [10]: 0.0016 s⁻¹
- kon [10]: 181000 M⁻¹ s⁻¹
- Response [11]: 0.176
- Response [12]: 0.0161
- Response [13]: 0.138
- Response [14]: 0.0379
- Response [15]: 0.0866
- Response [16]: 0.0702
- Response [17]: 0.0007
- Response [18]: 0.0041
- Response [19]: 0.0084
- Response [20]: 0.0076
- Response [21]: 0.0079
- koff [22]: 0.233 s⁻¹
- Kd [23]: 2870 nM
- koff [23]: 0.266 s⁻¹
- kon [23]: 92600 M⁻¹ s⁻¹
